Tests used:
[1] = biological target: N-terminal GST-tagged GlyRS (human) (UniProt P41250); test: biolayer interferometry (Octet), GlyRS immobilized
[2] = biological target: N-terminal GST-tagged GlyRS (human) (UniProt P41250); test: biolayer interferometry (Octet), GlyRS immobilized, 30°C

Sequence of N-terminal GST-tagged GlyRS (human) (P41250 55-739): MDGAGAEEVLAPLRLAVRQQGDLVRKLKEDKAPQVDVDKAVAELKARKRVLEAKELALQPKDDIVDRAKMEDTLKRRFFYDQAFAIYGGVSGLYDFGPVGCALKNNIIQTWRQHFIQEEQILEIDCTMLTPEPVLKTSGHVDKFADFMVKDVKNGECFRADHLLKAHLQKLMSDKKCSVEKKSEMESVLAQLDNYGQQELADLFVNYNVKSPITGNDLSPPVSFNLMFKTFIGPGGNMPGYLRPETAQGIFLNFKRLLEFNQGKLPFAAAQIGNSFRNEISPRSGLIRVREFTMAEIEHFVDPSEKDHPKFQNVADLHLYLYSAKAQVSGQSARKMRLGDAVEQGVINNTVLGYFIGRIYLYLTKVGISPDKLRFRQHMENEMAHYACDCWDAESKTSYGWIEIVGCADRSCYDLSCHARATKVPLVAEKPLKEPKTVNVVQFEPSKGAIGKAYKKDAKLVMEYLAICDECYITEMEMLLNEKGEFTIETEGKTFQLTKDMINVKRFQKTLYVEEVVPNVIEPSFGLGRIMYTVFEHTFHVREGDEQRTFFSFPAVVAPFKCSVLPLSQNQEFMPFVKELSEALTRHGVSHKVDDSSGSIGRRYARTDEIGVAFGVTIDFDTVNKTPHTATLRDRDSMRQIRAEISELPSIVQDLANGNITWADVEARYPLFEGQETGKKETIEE

**Q.** Which fold stronger than the Kd for NEDD8 alone [1] does the source give for “Ubc12^N8: NEDD8-conjugated Ubc12 (C111S, stable ester linkage to His-SUMO-tagged NEDD8) (from UniProt P61081 1-183; Q15843 1-76)” here?
**A.** The fold stronger than the Kd for NEDD8 alone was 30 fold.

**Q.** And the fold stronger than the Kd for Ubc12 alone [1]?
**A.** The fold stronger than the Kd for Ubc12 alone was 100 fold.

**Q.** And the Kd [2]?
**A.** Its Kd is 4.09 nM.

From patent publication US20190381086A1, “INHIBITION OF NEDDYLATION USING GLYCYL-tRNA SYNTHETASE INHIBITORS” (The Scripps Research Institute, priority 2015, published 2019)
